From the supplement of paper PMC12764529
± gives the half width of the 95% confidence interval.

assay: folding stability dG unfold (combined trypsin and chymotrypsin); higher = more stable
How it was run: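 K50 was inferred by Bayesian fitting of sequencing counts obtained after protease digestion of designed mini-proteins. Unfolding free energy was derived by comparison with a sequence-predicted unfolded-state K50 and a shared folded-state K50, for each protease or both combined. The mini-proteins were under 80 residues, had no cysteine, were carried in a PA-tagged cDNA display construct, and were kept only if AlphaFold2 dimer inter-PAE exceeded 15.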

Sequence	folding stability dG unfold [kcal/mol]
SAGGSAGGSSVTLTFTGGNSEVTVELDAGGEGGFLARVTVVTESDGKLETVEADFYLGSLPGLSAGGSAGGS [r12_769_TrMRF]	3.29 ± 0.13
SAGGSAGGGDAESYAKEKGFVEIKVTKLPDGSERVTAKYPDGTTADILYTPGQGTFTLLETKKESAGGSAGG [r6_906_JUSTAS]	0.332 ± 0.078
SAGGSAGGSAMPVIELTIKVKTKEEAKKAAEELAKKLEEEFGLKVEVEYDEETKEVKVKIYPSAGGSAGGSA [r18_368_TrROS_Hall]	2.07 ± 0.089
SAGGSAGGSAGIEKTKDGVYKITIYNPSTGKKTEIYVPSSAPYVAGPVVLELVKNKAIIESAGGSAGGSAGG [r11_538_TrMRF]	0.47 ± 0.055
SAGGSAGGSAGLEVPEGYEVKILDVNPETLPNGERVVSMTVLIIDPDGNPRKVEFRFYAPSAGGSAGGSAGG [r11_570_TrMRF]	2.27 ± 0.084
SAGGSADYYLIVIEIEKNGKKYKIVLVVSKEDLKKLEEEIKKKFPDVKIKIKVIKFPSKEEALKALSAGGSA [r15_889_TrROS_Hall]	3.46 ± 0.12
SAGSMEELIANGGTISEERTLPGGEKVFTTTTLTYAPDGTPVINTETTVTTTPPDGTTTPSTSTSTVPLSAG [r5_24_JUSTAS]	1.04 ± 0.035
SAGGSAGGSAGGSWTVTKEISREGDKVYISTVTTYVNPNGTPVTETETKEISPEEVAELESAGGSAGGSAGG [r11_690_JUSTAS]	1.11 ± 0.11
SAGGSDDPAKDIDLDIPVVVLEEEEARELARELDKPIIFRLPDGRLRVFYPDGREEEFPLPKPEELSAGGSA [r2_34_TrMRF]	2.96 ± 0.039
SAGGSAGGSAGGSMEFEVAEVFPDGWVVLRFPDGSRYRARLALDPETGEAKLLSLEPLPSAGGSAGGSAGGS [r4_247_TrMRF]	4.15 ± 0.2
SAGGSMFKVEEVETLENGEVLAKLTVYLDGKPYPATARIYTLPDGRKVAEIYFPDNPNVSLRIPLTSAGGSA [r2_376_TrMRF]	4.1 ± 0.053
KPKIVEKKEITIKLNGKTIKITLVKNKETGKYYAKIEIFEYDKNGKLVKKETITLEFDSLEDLLEALKKLAS [r1_288_TrROS_Hall]	3.18 ± 0.4
MKVIEVPIEGLPVEEIRRVIEEAIEKAKAEGNPDVKIIVTVPGPPELVEATTAVVKEIADKGDVEVSVVALS [r1_387_JUSTAS]	3.52 ± 0.29
SAGGKYKVEIIDPKEGEKVFIEIDEETKKITIWNAKTGEKVAEFEIKDLKEGDTITLPNGFVIKIEKESAGG [r13_720_TrROS_Hall]	4.61 ± 0.12
SAGGSAGGSMTSVTTLVETETLTNGNTIVPQLVQITVTLEVPAVPPEEIKPKPAPGDRWTYYSSAGGSAGGS [r12_1031_JUSTAS]	1.12 ± 0.18
SAGGSAGGSAMTPPEELKEKIAAEVSPDTTVTETFPEEPLVVKITRNPSGTITVEVVSPEELSAGGSAGGSA [r18_61_JUSTAS]	0.546 ± 0.088

Sequence	folding stability dG unfold [kcal/mol]
SAGMPGKVVTVTVPVPPELTRLTVTATAPDGSSSTFTLPPGVATTVTFTSPSSSDLSVTVTFPDGSTTGSAG [r5_664_JUSTAS]	1.07 ± 0.05
SAGGSAGGSDYLMIWIPPDALKGMPPGQEIEFEIKFNGGEYKVKIKVMPHENGHYMIMITVEPSAGGSAGGS [r12_433_TrROS]	4.06 ± 0.25
SAGGMPKDAPTTDLTITEIVTEPDPNSDTYIARVTTRLPDGTEIVYTLPIPADTTEEEVVERAKELLSSAGG [r13_578_JUSTAS]	2.12 ± 0.077
SAGGSAGGSAGMVEVEVRKTENGNYVVTTTTVTTSPVTTPNPYTRTVTTVTTSTTVIPATSAGGSAGGSAGG [r11_403_JUSTAS]	-0.187 ± 0.39
SAGGSGMEAKLLEEALEAELKAKGYKVEVKVTVTKSFSVQEGGLPSSTTTVTIEITVRDPKTGKKVSAGGSA [r2_434_JUSTAS]	2.56 ± 0.16
SAGGSAGGPSLRLTFPFPPGFSVTIELFPDGTARITIHNSDGSLLLSFSIPLPPVIPPDPSSLLSAGGSAGG [r6_238_TrMRF]	2.84 ± 0.38
SAGGNWRIRVKIEGPDGKTVNHWFWIPNLEDLLSFIQSQPGPKIKDVEIEPPPKDKQYYIPFTMTIPPSAGG [r13_796_TrROS]	1.8 ± 0.11
SAGGWYLRIEPDDGRELEIPMNDPGLPLEDLADKLMKDMPGPMKIKVEFYHPNKPVEHTIKIPLPKNSAGGS [r16_216_TrROS]	0.423 ± 0.28
SAFKIDPNGHIRIMISQDDLKQMSIEEINNLVKELAKAFPPPMKVEIHIMPPPPKPKPPPKRDDDGKPKSAG [r14_312_TrROS]	1.1 ± 0.18
SAGGSAGGTIWFDNPEDVERVVKDLRQEFPPDNPIDIMIWGPGSMYVIEITPDKIKDVEVYPMDSAGGSAGG [r6_289_TrROS]	0.598 ± 0.27
SAGGTMIELKSASGKTALLPLPPGTERVEREGDKWTIYLPPEYTLTVEITAPVPPSSLFDLKVLSRKLSAGG [r19_274_JUSTAS]	0.734 ± 0.31
SAGGSKKKEEVKEIDVVLVEVSEEEALKLAEETGKAVIVVFPDGELRIFYPDGTVETIKLPDLEELSAGGSA [r2_34_TrROS_Hall]	0.296 ± 0.21
SKKKKKLTAEEIAKKLEEKLKEEFGIEEIKITKIEFDKETKEITITMEITYKKKKNEKITITKKIKVEDLSA [r9_1002_TrROS_Hall]	2.28 ± 0.63
SVTITKDGNKITVTLSVNGPFTLQVNKESSTSSFSVPADESATLTIDVPNTTYKVVVEKPGQPVSTYDLLSA [r9_411_JUSTAS]	1.97 ± 0.23
SAGGSADNTDVKTEVVGFRLPGYEGLNFLINIQPKDKPKTIFASEAELPLFEEAGIPVVFTSSLPLSAGGSA [r15_783_TrMRF]	-0.131 ± 0.24
SAGGSKKTIELVIKDKKTNKWLKITIEYDEETGEVTVTIYDKNGEVVKEIKMSKDELKKLLEKLGFSAGGSA [r2_115_TrROS_Hall]	4.28 ± 0.36
